System: K4 kissing-loop RNA reporter
Experiment: apparent KD of K4 kissing-loop reporter; higher = weaker reporter binding
Details: Eterna round: R107
Experimental: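 RNA-MaP round R107: designed RNA switches with theophylline, tryptophan, arginine or FMN aptamers are transcribed on-chip within common flanks. They are titrated with a labelled K4 kissing-loop RNA reporter in RNA-MaP buffer (100 mM Tris pH 7.5, 80 mM KCl, 4 mM MgCl2), without ligand or with the indicated ligand. Median apparent KD per design.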

[1] = input ligand: theophylline 20 uM
[2] = input ligand: tryptophan 2.4 mM
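Note: bound reporter read as fluorescence of individual clusters on recovered sequencing chips by microscopy, with normalized cluster intensities fitted with a binding model.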

Sequence	apparent KD of K4 kissing-loop reporter (input ligand: FMN 200 uM) [nM]	apparent KD of K4 kissing-loop reporter (input ligand: arginine 13.2 mM) [nM]	apparent KD of K4 kissing-loop reporter (input ligand: none) [nM]	apparent KD of K4 kissing-loop reporter [1] [nM]	apparent KD of K4 kissing-loop reporter [2] [nM]
AGACAUAUGACUGUAUGUUUCCAAGGUGUCAAGGAUAUAGUAAACACUAGAAGGUGAGAUCACAGGAGUGAUGUUCGAAAAUGGA [theeternabot_sameState_KL_FMN_A_14]	419	208	237	233	248
AAGGCCACGAGAAGGAGCGUGUUGUGGAGUGAUGUUCCAUUGUAGACCUAAGGUCUACAAGCACAGGUAGGUCGCUCGUGGUCAA [Omei KL Arginine B SS A v5]	131	120	132	112	119
UAAUUUAUGUCUUUAAUUUAAUAAUCAGAUACCAGUGAUUUAUGACACCCUUGGCAGCUGUAUUGAGUGAUGUUCUUAUACUUAA [JR_Nu_ExcTheophyA_Sub021]	131	169	171	212	101
CUGAGCCUGACGCAAGUCAGGCUCUGCGAGCGAGGACCGGUACGGCCGCCACUCGGUGCAGUGAUGUUGCAUGGCCGCAAGGCCG [#2 Exclusion - Tryptophan A Attempt #21 (HarryS)]	254	215	274	218	306
UUAGAGAUCUCAGGAUAUCAGUGAUGUUGGUGUUAAGAUCUGAGAUAGAAUUCUAUCUCAGAUCAAUGAGAAGGGAGAUCUCAUU [AK3 Exc FMN B]	296	132	167	161	152
UUGUUUUACUGAAGGAGCGGCAAUUGAUACGUAGAUAUAGUGAUGUUAUAUAAGAUAGAGAGCCAGGUAGGUCGCAGAUUUGUUU [ExArgB.U]	221	193	188	183	173
UGUACCGAGUCAGGAUAUCGCGUCGAAAGACGAAACGAGUGAUGUUCGAAUCGAUCGAAAGAUCGUCGAGAAGGGACUUGGUACU [FmnBS 22 #SwitchBubble #StaticStem #DoubleMagnetSystem]	219	676	642	569	589
CGUACGGUUUCUUUCUUUCCGUACGCGUGCCGAGGACCGGUACGGCCGCCACUCGCUACAGCCUAGUGAUGUUAGGCAAUUCUUU	107	111	112	124	89.9
AUUUAGACGAGUGAUGUUCGUGUUAUUACAGAGGAUAUGCGUGAUUGCAGAAGGCUGUAUUUAUAUAUGUUAUGUGGUUUUAAAA [whbob_Ex_FMNA__2th186]	79.7	102	90.7	102	69.9
ACGAAGGAUGGAAGGAGCGCUCGUCAGUCCUGCGAGUGAUGUUCGUGGGUAAAUAUUCGCGAGCAGGUAGGUCGCCAUCUUGAAC [Veticeen]	146	104	137	121	134
UAGACCAGUGAUGUUGGUUCCAAGACGGAUACCAGACUGGCAGAAGUCCCUUGGCAGCUGUAGACCUUGUGAGCUACAAGGUCGG [Theo A SS t2]	923	184	440	170	295
AGACUACCACACUGUCAAUAGACAGUGAGCUAGGAUAUGCUGAUAAGCAGAAGGAGUGAUGUUCCAAGGUAGUCAAUAAAAUAAU [FmnAX 13 G29+A66]	209	203	221	267	209
UGUUCAAGUGAUGUUUGAGACUAGGUGGAUACCAGCGCAUGCAGUCGCCCUUGGCAGCCAGAAACCAACGCCGCGCGCUUCGGCU [theeternabot_sameState_KL_Theo_A_39]	342	325	464	350	334
UUGGCAGUGAUGUUGCCAGAGUUCACCGAAGGAGCGGGUGAAAACCCAGGUAGGUCGCGGUAGCGGAGUGAUUCUCCGCGAGGGC [Same State Arginine A GF 22]	90.5	91	86.2	93.7	91.4
CGCGCGCGUUGAGAGGUGCGCGCGAAUGAUACCAGUAUAUAAGAAUACCCUUGGCAGCAUAAGAAAGAUAUAGUGAUGUUGUAUA [SSTheophA.F]	346	130	250	308	228
UAAUAAAUUCCAGCGAUAUCGCUCUUCGAAGGAGCGGGCGAAGGUCCAGGUAGGUCGCGGAGAGUGAUGUUCUUUGCGGCGCUGG [whbob_Ex_Arginine_A_2t135]	216	225	239	226	273

From the supplement of paper PMC9170038
